Test results taken from patent US20090075881A1.
pKd: −log10 of the molar value.

Biological target: fibrinogen complex (FC) component of TISSEEL VH S/D
Assay: SPR; FC coupled to sensor chip, PDGF-AB as analyte in PBS pH 7.4; KD = Koff/Kon by two methods

- pKd: 6.47
Substance: recombinant human PDGF-AB (from UniProt P04085 87-211; P01127 82-190) (ligand)
